Laboratory results: patent US20170306048A1 (SORRENTO THERAPEUTICS, published 2017)
Where “and” joins values, the source holds several entries; their conditions need not be identical. Equal entries are not always repeated.

What was measured:
[1] = molecular target: T1, human STAT3, endogenous, in human cell lines (U251, MDA-MB-468, HeLa, MCF-10A, MCF-7, COLO205) (human, UniProt P40763 2-770); assay: flow cytometry on PFA-fixed, methanol-permeabilised MDA-MB-468 cells, PE anti-human IgG, MFI (FL-2)
T1 construct: whole, on cells; also called cellular antigens
Method: (§1) Next, the binding of the candidate anti-STAT3 antibodies to cellular targets was tested in cell binding assays using MDA-MB-435 breast cancer cells and U251 cells. The cells were seeded overnight in a 96 well plate, then fixed with PFA and permeabilized with methanol. Cells were incubated with serial dilutions of the anti-STAT3 antibody candidates ST1A5, ST3G12 and ST5G12 for one hour and 30 minutes. Following incubation, the cells were washed and incubated for 30 minutes with phycoerythrin (PE) conjugated anti-human IgG. Fluorescence was measured on an Intellicyte high-throughput flow cytometry analyzer. […] Bevacizumab (Avastin), a monoclonal antibody that inhibits vascular endothelial growth factor A (VEGF-A) was used as a negative control.

[2] = molecular target: T2, recombinant human STAT3 protein (human, UniProt P40763 1-770, limits assumed); assay: ELISA on recombinant human STAT3 protein, Abs 450
T2 construct: also called recombinant human STAT3 proteins; antigen

[3] = molecular target: T2, recombinant human STAT3 protein; assay: ELISA on recombinant human STAT3 protein, absorbance at 450
[4] = molecular target: T1, human STAT3, endogenous, in human cell …; assay: flow cytometry (HTFC) on permeabilised U251 cells, PE anti-human IgG
Method: After 45 minutes at room temperature, cells were washed twice and incubated with phycoerythrin (PE) conjugated-anti-human IgG for 20 minutes at room temperature in the dark. Cells were then washed and analyzed by high throughput flow cytometry (HTFC). The results are shown in FIG. 4 for assessment of antibody binding to U251 cells.

[5] = molecular target: T3, recombinant human STAT3-GST (human, UniProt P40763 1-770, limits assumed); assay: SPR (Biacore T200), antibody captured on anti-human Fc, STAT3-GST as analyte, 1:1 model
T3 construct: Analyte in the Biacore assay; not shown: GST (glutathione S-transferase) tag
Method: Anti-human Fc antibody (GE, BR-1008-39) was immobilized on a CM5 sensor chip to approximately 1000 RU using standard NHS/EDC coupling methodology. Antibodies (approximately 10 ug/ml) were captured for 60 seconds at a flow rate of 10 ul/min Recombinant human STAT3-GST was serially diluted 2-fold into running buffer (HBS-EP+, starting from […]). All measurements were conducted at a flow rate of 30 ul/min Surfaces were regenerated with 3M MgCl₂ (from human antibody kit) for 60 seconds. A 1:1 (Langmuir) binding model was used to fit the data.

[6] = molecular target: T1, human STAT3, endogenous, in human cell …; assay: flow cytometry on PFA-fixed, methanol-permeabilised U251 cells, PE anti-human IgG, MFI (FL-2)
Method: as §1

[7] = molecular target: T4, mouse STAT3, endogenous, in mouse cell lines CT-26 and MC-38 (mouse, UniProt P42227 2-770); assay: flow cytometry on fixed, permeabilised mouse CT-26 and MC-38 cells, PE anti-human IgG; antibody concentration not given
T4 construct: whole, on cells; Intracellular protein

[8] = molecular target: T2, recombinant human STAT3 protein; assay: STAT3 binding ELISA, Hu-IgG-Fab detection (title on the sheet), OD 450 nm, ng/ml is the unit of the x axis
human IgG [9] = assay: ELISA in Superblock buffer, OD 450 nm; partner not named on the sheet, legend paragraph 53 says 'to human IgG', ng/ml is the unit of the x axis
[10] = molecular target: T2, recombinant human STAT3 protein; assay: ELISA in Superblock buffer, OD 450 nm; antigen named neither on the sheet nor in legend paragraph 54, taken as the antibody's antigen STAT3, ng/ml is the unit of the x axis
[11] = molecular target: T2, recombinant human STAT3 protein; assay: ELISA in Superblock buffer, OD 450 nm; antigen named neither on the sheet nor in legend paragraph 54, taken as the antibody's antigen STAT3; unit from the x axis
human IgG [12] = assay: ELISA in Superblock buffer, OD 450 nm; partner not named on the sheet, legend paragraph 53 says 'to human IgG'; column taken as the curve ST3G12-PS superblock; unit from the x axis

T1 sequence (P40763 2-770): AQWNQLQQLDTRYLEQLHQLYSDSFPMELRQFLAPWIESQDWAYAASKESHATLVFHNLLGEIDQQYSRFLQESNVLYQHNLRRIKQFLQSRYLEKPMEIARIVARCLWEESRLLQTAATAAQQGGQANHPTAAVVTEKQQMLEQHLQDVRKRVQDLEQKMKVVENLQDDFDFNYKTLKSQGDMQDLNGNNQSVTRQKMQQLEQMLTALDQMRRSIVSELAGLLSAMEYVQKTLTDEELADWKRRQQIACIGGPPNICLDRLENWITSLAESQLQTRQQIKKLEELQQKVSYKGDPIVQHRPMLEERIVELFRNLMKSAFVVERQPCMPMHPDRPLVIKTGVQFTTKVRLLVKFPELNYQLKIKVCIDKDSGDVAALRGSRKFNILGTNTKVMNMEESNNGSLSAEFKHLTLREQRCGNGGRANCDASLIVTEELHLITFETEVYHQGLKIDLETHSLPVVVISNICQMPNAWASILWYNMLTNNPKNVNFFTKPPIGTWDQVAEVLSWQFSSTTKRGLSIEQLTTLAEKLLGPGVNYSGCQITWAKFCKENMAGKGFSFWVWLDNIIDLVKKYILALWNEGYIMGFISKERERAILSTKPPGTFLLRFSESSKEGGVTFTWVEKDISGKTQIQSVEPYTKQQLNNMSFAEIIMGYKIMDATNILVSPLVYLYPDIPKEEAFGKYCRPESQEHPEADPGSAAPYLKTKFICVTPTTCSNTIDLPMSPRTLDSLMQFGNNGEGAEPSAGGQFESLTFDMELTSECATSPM
T3 sequence (P40763 whole entry): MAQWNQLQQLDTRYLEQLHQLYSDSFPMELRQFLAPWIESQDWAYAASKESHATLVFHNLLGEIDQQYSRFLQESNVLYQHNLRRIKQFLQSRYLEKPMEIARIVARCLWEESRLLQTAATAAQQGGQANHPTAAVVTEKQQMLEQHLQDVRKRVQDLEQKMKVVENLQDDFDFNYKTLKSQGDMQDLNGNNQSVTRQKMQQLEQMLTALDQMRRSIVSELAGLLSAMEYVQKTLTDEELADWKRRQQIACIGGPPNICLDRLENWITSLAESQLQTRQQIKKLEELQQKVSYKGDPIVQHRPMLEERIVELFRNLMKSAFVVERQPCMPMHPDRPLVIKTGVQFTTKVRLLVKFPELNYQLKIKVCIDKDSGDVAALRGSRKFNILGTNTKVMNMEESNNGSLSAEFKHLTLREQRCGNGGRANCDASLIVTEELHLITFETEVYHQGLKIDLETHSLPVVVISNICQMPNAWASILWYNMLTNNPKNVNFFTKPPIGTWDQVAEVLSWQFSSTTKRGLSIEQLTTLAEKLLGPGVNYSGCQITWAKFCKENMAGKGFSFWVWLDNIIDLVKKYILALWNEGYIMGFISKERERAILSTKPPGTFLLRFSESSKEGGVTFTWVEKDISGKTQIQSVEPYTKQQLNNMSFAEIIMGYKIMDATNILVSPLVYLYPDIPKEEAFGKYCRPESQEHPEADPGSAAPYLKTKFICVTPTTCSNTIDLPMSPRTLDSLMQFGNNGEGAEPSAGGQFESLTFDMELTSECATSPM
T2 sequence (P40763 whole entry): as above
T4 sequence (P42227 2-770): as the sequence (P40763 2-770) above, with E759D counted along it

Binder | EC50 (read off the curve) [1] [nM] | EC50 (read off the curve) [2] | EC50 (read off the curve) [3] [mg/L] | EC50 (read off the curve) [4] [nM] | Kd [5] [nM] | koff [5] [s⁻¹] | kon [5] [M⁻¹ s⁻¹] | EC50 (read off the curve) [6] [nM] | binding result [7] | EC50 [8] [mg/L] | EC50 (human IgG [9]) [mg/L] | EC50 [10] [mg/L] | EC50 [11] [mg/L] | EC50 (human IgG [12]) [mg/L]
anti-STAT3 antibody ST1A5 (antibody, V domains shown, Fully human monoclonal antibody detected with anti-human IgG; also called Ab#2) VH: not shown VL: QSVLTQPPSVSKGLRQTATLTCTGNSNNVGNEGAAWLQQHQGHPPKLLSYRNFNRPSGISERFSASRSGNTASLTITGLQPEDEADYYCSAWDSSLSAWVFGGGTKLTVL | ~5 |  |  |  |  |  |  |  |  |  |  |  |  | 
anti-STAT3 antibody ST3G12 (naked / unmodified) (antibody, V domains shown, Fully human monoclonal antibody, detected with anti-human IgG and captured with anti-human Fc; also called Ab#1; ST3G12-unmodified) VH: QVQLVQSGAEVKKPGASVKVSCKASGYTFTSYYMHWVRQAPGQGLEWMGIINPSGGSTSYAQKFQGRVTMTRDTSTSTVYMELSSLRSEDTAVYYCARSDYVHSFDIWGQGTMVTVSS VL: QPVLTQPPSASALLGASIKLTCTLSSEHSTYTVEWYQQRPGRSPQYIMNVKSDGSYNKGDGIPDRFMGSSSGADRYLTFSNLQSDDEAEYHCGESHRIDGQVGVVFGGGTKLTVL |  | ~0.06 mg/L | ~0.007 | ~10 | 5.39 | 0.000322 | 59700 | ~4 | binds | 0.155 | 0.122 | 0.0257 |  | 
ST3G12-PS antibody conjugate (compound 901) (antibody, V domains shown, also called PS-ST3G12; Anti-STAT3-PS) VH: QVQLVQSGAEVKKPGASVKVSCKASGYTFTSYYMHWVRQAPGQGLEWMGIINPSGGSTSYAQKFQGRVTMTRDTSTSTVYMELSSLRSEDTAVYYCARSDYVHSFDIWGQGTMVTVSS VL: QPVLTQPPSASALLGASIKLTCTLSSEHSTYTVEWYQQRPGRSPQYIMNVKSDGSYNKGDGIPDRFMGSSSGADRYLTFSNLQSDDEAEYHCGESHRIDGQVGVVFGGGTKLTVL |  | ~0.06 mg/L and ~0.1 mg/L | ~0.007 |  | 0.222 | 0.00011 | 494000 |  |  | 0.153 |  |  | 0.0643 | 0.186
